Assay results reported in the supplement of paper PMC10724198.
± gives the standard deviation of the averaged measurements.

Test system: Saccharomyces cerevisiae
Test: protein stability index of tFT-peptide fusion (C-terminal peptide) (PSI (0-1 scale)); higher = more stable (slower turnover)
Conditions: genetic background: wild type; temperature: 30 C
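Also: PSI is a weighted mean of sequencing reads over stability bins, variants kept only with over 10 reads, mCherry proximal and sfGFP distal, peptide attached via GGGS linker.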

Row | Sequence | protein stability index
1 | NPSSKVIALWKI | 0.556 ± 0.046
2 | GGPPSPPFFDAV | 0.741 ± 0.081
3 | WFSGFLGEFNRF | 0.706 ± 0.063
4 | SISYCSAFGGID | 0.69655 ± 7.1e-05
5 | EGVGLAETAGDD | 0.684 ± 0.039
6 | PMLRSLVVLSSR | 0.669 ± 0.022
7 | SPPAPPLALPPP | 0.737 ± 0.057
8 | GGGCERGVGLLG | 0.626 ± 0.066
9 | GGRGWRSGTEGE | 0.675 ± 0.013
10 | VVKEGGGCREGR | 0.64 ± 0.028
11 | FWERWDLFCGLC | 0.702 ± 0.1
12 | KKKKDKEIIHKE | 0.758 ± 0.12
13 | PSHPPPPSPTPP | 0.754 ± 0.024
14 | VCVQECMPTAWR | 0.704 ± 0.036
15 | FGVGWGDGFFGV | 0.716 ± 0.059
16 | PHRPCPPPAPPP | 0.658 ± 0.0096
17 | TACIVGLRLMRL | 0.787 ± 0.063
18 | DPRPRLNCSYEH | 0.68 ± 0.014
19 | RLRCRYLSSTYY | 0.712 ± 0.0078
20 | ELLRTGRVLDRE | 0.71 ± 0.0076
21 | PRGYCGLGRPAR | 0.6305 ± 0.0013
22 | TFPSADLYYSLL | 0.74 ± 0.049
23 | SPPPAPPPPPQT | 0.66492 ± 0.00031
24 | PPHTHTQRPSPT | 0.715 ± 0.027
25 | APSPPFLPLTLT | 0.656 ± 0.035

Row | Sequence | protein stability index
26 | TRPGKRNGRPPR | 0.6995 ± 0.0008
27 | NMIKNNKWDINR | 0.7 ± 0.074
28 | VKGLFLHFLESS | 0.695 ± 0.042
29 | QMSAATLLFSRL | 0.734 ± 0.029
30 | PALKQEGRPEHS | 0.6942 ± 0.0053
31 | APPPPAVPHYRP | 0.667 ± 0.012
32 | EKNDMKKKKNRQ | 0.713 ± 0.035
33 | GVGGGSRGVCLG | 0.638 ± 0.094
34 | SVAWGGGVVEWG | 0.661 ± 0.11
35 | GIVCGDADMEGG | 0.676 ± 0.051
36 | LQFGHGDFRSTV | 0.713 ± 0.093
37 | TLSSGREVVGRW | 0.576 ± 0.012
38 | SPAPALFCPARF | 0.739 ± 0.022
39 | PLGFFHKQSATV | 0.666 ± 0.023
40 | DRRTGRAGEMSP | 0.669 ± 0.064
41 | SGLLSPHTHMFP | 0.598 ± 0.048
42 | LGVVCVGWLGGL | 0.664 ± 0.03
43 | SGDVENQMGEES | 0.717 ± 0.062
44 | RSPKGKKRVGKW | 0.714 ± 0.039
45 | RPFSMGSNNIIR | 0.7 ± 0.022
46 | SDSREAVLTEEP | 0.625 ± 0.13
47 | FVVSSLYSYSYR | 0.56 ± 0.015
48 | LHPPTHPQLPSS | 0.7214 ± 0.0059
49 | FGGGGRGGLLWC | 0.764 ± 0.06
50 | LYSRSSRLFRPL | 0.804 ± 0.042

Row | Sequence | protein stability index
51 | PFPPSAAPPLPF | 0.593 ± 0.068
52 | CIITHSQNKLNT | 0.724 ± 0.059
53 | SGCVGGSDVALS | 0.721 ± 0.018
54 | PPSPRFFPSFPP | 0.729 ± 0.021
55 | SGKKKVSAQRII | 0.6709 ± 0.0023
56 | ALASPPPTPSLV | 0.638 ± 0.0068
57 | RPHVLAHSLLLS | 0.584 ± 0.011
58 | PPPPAPPPPVPS | 0.69246 ± 0.00027
59 | GRRPPWRFSFPF | 0.769 ± 0.063
60 | VLLGSEGGVQSR | 0.646 ± 0.011
61 | TRSISPGTFWTS | 0.723 ± 0.018
62 | CGSGVAVGVLVL | 0.6 ± 0.038
63 | SSRELVDGVGIA | 0.763 ± 0.068
64 | ASLDTALVHITL | 0.622 ± 0.0064
65 | SCCPVESSHSLP | 0.612 ± 0.055
66 | GVGLWGVGFRGG | 0.7 ± 0.034
67 | LPPRPPTHSPPP | 0.722 ± 0.011
68 | DLIHLVVIVPMV | 0.554 ± 0.035
69 | LHAGHSNSVLAF | 0.601 ± 0.0075
70 | CESEAGGGVTLC | 0.669 ± 0.025
71 | TTKNTSIKTKLK | 0.67 ± 0.026
72 | LYSTATLSLCSR | 0.707 ± 0.12
73 | PPAPSPPPLPAA | 0.665 ± 0.031
74 | TYYCFYCHPSLL | 0.699 ± 0.057
75 | AAAPWSVSGCPG | 0.6611 ± 0.0049

Row | Sequence | protein stability index
76 | GGGVGLRGGWDG | 0.71 ± 0.044
77 | PPPPPAPPPTPL | 0.556 ± 0.011
78 | HEGPGTTEFLGL | 0.717 ± 0.059
79 | KAGKFLVGKSLS | 0.657 ± 0.026
80 | HVTSTRGARRPS | 0.715 ± 0.019
81 | PALPPPPPSPPL | 0.676 ± 0.15
82 | SHSKSQRRFQTR | 0.637 ± 0.093
83 | FFPLRLLPLVPR | 0.645 ± 0.0063
84 | PFPSPPSPRDAS | 0.688 ± 0.042
85 | IACPPSVIFSPH | 0.713 ± 0.058
86 | RLPLYAIPPFPP | 0.636 ± 0.0091
87 | VSLFETIPVLSR | 0.605 ± 0.014
88 | GLLGVRVVAGLG | 0.625 ± 0.032
89 | DRSSVLSPFHPL | 0.76 ± 0.019
90 | LSPALSFVLTIW | 0.497 ± 0.011
91 | TKKKRKKKNTKK | 0.685 ± 0.061
92 | VLFCSVSFGGGQ | 0.614 ± 0.091
93 | ILLPLRHHSFSD | 0.643 ± 0.0087
94 | MDKIKKNYSQIG | 0.693 ± 0.036
95 | RYNRMVERALKY | 0.677 ± 0.027
96 | WGGGGGGGPAGV | 0.6659 ± 0.0021
97 | GSGTPRTPCLSH | 0.642 ± 0.04
98 | RRHNPARSRARG | 0.686 ± 0.053
99 | LASCVTRTMAWD | 0.664 ± 0.071
100 | VWVAGGVLWVLG | 0.5433 ± 0.0042

Row | Sequence | protein stability index
101 | SPPPLHPPPPAL | 0.637 ± 0.046
102 | PLLPRTPPLSAT | 0.671 ± 0.0079
103 | WVREFSHKHVMS | 0.718 ± 0.01
104 | PPPPPHRTPHPS | 0.727 ± 0.096
105 | LGSSQVGLVRRV | 0.663 ± 0.011
106 | PPPLPLPPPPPP | 0.58 ± 0.048
107 | EMTRELLMRVSK | 0.704 ± 0.015
108 | QDSETYSNEAGL | 0.669 ± 0.031
109 | QSPRLTSGPQPL | 0.652 ± 0.022
110 | AKSSLGSSYKTL | 0.761 ± 0.064
111 | RPPPPASPPSAP | 0.588 ± 0.076
112 | WAVGLNPSGLGT | 0.651 ± 0.063
113 | PEGICYCHSPAP | 0.694 ± 0.013
114 | LSGLQGPGVSCC | 0.642 ± 0.021
115 | SPEGYLLSPRCT | 0.737 ± 0.049
116 | GGVGAFAARRFA | 0.634 ± 0.012
117 | ILLLKFSKLNKK | 0.66 ± 0.033
118 | LNTVNGRSSTAK | 0.665 ± 0.019
119 | WGGGGLRVSCGT | 0.687 ± 0.093
120 | CFCPWFGRVCLG | 0.5142 ± 0.0014
121 | LHMVSCFLCSLW | 0.564 ± 0.018
122 | VVKGGGLGRRAG | 0.66 ± 0.089
123 | APSEPVIYLPRV | 0.746 ± 0.14
124 | HGQGWRPTYLSI | 0.796 ± 0.1
125 | APPPPHPRTPKP | 0.693 ± 0.069

Row | Sequence | protein stability index
126 | LLPPSHRASPRQ | 0.694 ± 0.027
127 | RLRPGGHPCVFF | 0.66 ± 0.041
128 | KKNKEKGEREKK | 0.615 ± 0.058
129 | VCLVLGGVEWCV | 0.6861 ± 0.004
130 | GSRVGRATGRRR | 0.709 ± 0.014
131 | KIMKINIYQKKR | 0.691 ± 0.028
132 | RAVLSNRVEERI | 0.696 ± 0.022
133 | WVRVSVPAVGRI | 0.7035 ± 0.0067
134 | PPPPAHPPPRSP | 0.741 ± 0.035
135 | QRSPNRISPADY | 0.798 ± 0.11
136 | ESRGKKPDTYTQ | 0.707 ± 0.074
137 | KERQERGKRKII | 0.536 ± 0.035
138 | SPPPPTPPPPPA | 0.718 ± 0.045
139 | LVNVIPSHERAT | 0.656 ± 0.037
140 | LPFRLARLSQEG | 0.849 ± 0.016
141 | MTYSVWENVLTW | 0.733 ± 0.032
142 | TLSHPANNKNNL | 0.681 ± 0.047
143 | QLVSNNCSLVMC | 0.532 ± 0.02
144 | CLGPGTFLLFFV | 0.5952 ± 0.0026
145 | PDERMVIPAIRD | 0.665 ± 0.12
146 | YYLQPTCLCFWE | 0.698 ± 0.0041
